From the RNAGym collection of RNA variant scans (doi:10.1021/acssynbio.7b00057)

B1: Pistol ribozyme (parent)
chain: GGGUCGUUGUUCCAUAAUCGCGUGGAUAUGGCACGCAAGUUUCUACCGGGCACCGUAAAUGUCCGACUGGAGCCGUUCGGGCGGCUAUAAACAGACCUCAGGCCCGAAGCGUGGCGGCACCUGCCGCCGGUGGUAAAAAAGAUCGGAAGAGCACACGUCU

Variants of: B1
Test: aptazyme ON/OFF ratio, guanine; higher = stronger switching; co-transcriptional cleavage with and without guanine

Variant	aptazyme ON/OFF ratio
U7G U10G U11C C12G C13G	1.07
U8G G9A U10C C12U	1.14
U7G U8C G9C U10C U11A C12A C13U	1.04
U8A G9U U11A C12A C13A	1.22
U7G U8C G9A U10A U11A C12A C13A	1.21
U7G U8G G9C U11A C12U C13U	1.26
U7A U8C U10C U11C C12U	1.04
U7G U10C U11G C12U C13U	1.18
U7A U8G G9C C12G C13U	1.34
U7C U8C G9C U10G U11A C12U C13U	1.09
U7A G9A U10C U11G C12U C13U	1.3
U8A U10A U11C C13G	1.02
U7A U10A C12A C13U	1.39
U8G G9A U11C C12A C13A	1.34
U7G U8C U10A U11A C13U	1.21
U7G U8A U11C C12A C13A	1.23
U8A U10G U11C C12U	1.04
U7A U8A G9A U10C U11G C13U	1.09
U8A G9U U10A C12G C13G	1.28
U8G U10C U11A C13U	1.22
U7A G9U U10C U11G C13U	1.2

Variant	aptazyme ON/OFF ratio
U7A G9A U11A C12G	1.23
G9A U10G C12U	1.82
U7C U8C G9A U10A U11C C12G C13G	1.4
U7G U8A U10G U11A C12U C13U	1.1
U7C U8G U11A C13G	1.07
U7A U8A G9U U10A U11G C12U C13A	1.25
U8G U10C U11A C13G	1.05
U7C U8A U10G U11A C13G	1.17
U7G U8G G9A U11C C12A C13U	1.41
U7A U8G G9U U11C C12G C13A	1.16
U7C G9C U11G C12G C13U	1.07
U7G G9A U10C U11C	1.04
U7C U8G G9U U10C C12G	1.29
U8C G9C U11C C13A	1.11
U7C U8A G9A U10C U11C C12U C13G	1.04
G9A U10A U11A C12U C13G	1.3
U7A U8C U10G U11C C12G C13G	1.17
U8C G9A U10A U11G C12G C13U	1.14
U7C G9A U10C C13A	1.07
U8A U11C C12A C13U	1.38
U7A U8G G9C U10A U11C C13A	1.04

Variant	aptazyme ON/OFF ratio
U7G U8A C13G	1.41
U7G G9C U10G U11G C12U C13G	1.1
U7G U8A G9C U10A U11G	1.05
U7A U8G G9A U11G C12G C13G	1.08
U7G U8C G9U U10A U11G C13U	1.38
U7C U8C U11G C12U C13U	1.22
U7G G9C U10G U11C C12U	1.28
U7A U8C G9A U10G U11C C12U C13G	1.2
G9C U10C C12A C13A	1.03
U7C U8A U10C U11A C12U	1.19
U7A U8C G9A U10A U11A C12U C13U	1.3
G9C U10C U11C C12U	1.03
U7A U8C G9U C12U C13U	1.39
U7G U8C G9A U10C U11A C12A C13A	1.15
U7G U8A G9U U10G U11A C12G C13A	1.03
U7G U8G G9U U10A U11G C13G	1.13
U8G U10A C12A C13A	1.26
U7G U8A G9C U11C C12G	1.05
U7C U8G G9C U10G C13A	1.25
U7G U8C G9U U11C C12G C13G	1.32
U7G G9C U10C U11G C12G C13U	1.08

Variant	aptazyme ON/OFF ratio
U7A G9U U10G C12G C13A	1.18
U8A U10A U11G C12U C13U	1.4
U7C G9A U10A U11A C12A	1.24
U7C G9U C13G	1.04
U7C G9U U10G U11A C12U C13G	1.1
U8G G9A U10G U11C C12G	1.19
U7C U8C G9A U10C U11A C12A C13G	1.4
U8G G9A C12A	1.61
U7G U8C G9U U10A U11C C12U C13U	1.56
G9U U11A C12A C13U	1.23
U7A U8A U10C U11C C12A C13G	1.09
U7C U8C U10A U11G C12A C13G	1.11
U7C U8G G9A U10G U11G C13G	1.39
U7A G9C U11C C13A	1.04
U7C U8A G9U U10G U11A C13U	1.03
U7A U8G G9A U10C C12G C13G	1.38
U7G G9A U11A C12A C13A	1.18
U8C G9U U10G C12U	1.35
U7G U8A G9A C12G C13A	1.13
U7C U8C U11C C13A	1.24
